# Laboratory results published in US20100279937A1, “Method of Inhibiting Angiogenesis, Tumorigenesis and Cathepsin Activity” (priority 2006, published 2010).
# How the values were obtained:
# [1] = test system: U87MG cells; assay: U87MG growth in semi-solid (soft) agar; assay type: cell-based, human; details: Alamar Blue
# Experimental: […] Approximately 15,000 cells±treatment were resuspended in 150 μl medium containing 0.3% agar, and seeded onto a well of a 24-well plate previously layered with 250 μl 0.6% agar. The solidified cell layer was covered with 50 μl DME±treatment which was replaced every three days over a 21 day period. Phase contrast images (6 fields/well) were captured using a digital video camera (Olympus U-CMT) and analyzed with Northern Eclipse v.5.0 software. Color images were transformed to grey scale, thresholded, and then converted to binary images. Number and area of colonies per field were calculated. In order to measure cell viability, at the end of the experiment, 40 μl alamar blue was added to each well and fluorescence readings were performed every 10 min for a period of 180 min. Experiments were repeated 2-3 times in triplicates.
# [2] = test system: human brain endothelial cells (HBEC); assay: Capillary-like tube (CLT) formation by HBEC on Matrigel (in vitro angiogenesis); assay type: cell-based; details: 20 nM
# Experimental: Human brain endothelial cells (HBEC) were obtained from small intracortical microvessels and capillaries (20-112 μm) harvested from temporal cortex from patients treated surgically for idiopathic epilepsy. Tissues were obtained with approval from the Institutional Research Ethics Committee. HBEC were separated from smooth muscle cells with cloning rings and grown at 37° C. in HBEC media containing Earle's salts, 25 mM 4-(2-hydroxyethyl)-1-piperazineethanesulfonic acid (HEPES), 4.35 g/L sodium bicarbonate, and 3 mM L-glutamine, 10% FBS, 5% human serum, 20% of media conditioned by murine melanoma cells (mouse melanoma, Cloudman S91, clone M-3, melanin-producing cells), 5 μg/ml insulin, […], 5 ng/ml selenium, and 10 μg/ml endothelial cell growth supplement. HBEC cultures were routinely characterized morphologically and biochemically.
# (§1) In vitro angiogenesis was assessed by endothelial tube formation in growth factor reduced Matrigel™ (BD Bioscience, Bedford, Mass.). 24-well plates were coated with 300 μl of unpolymerized Matrigel™ (5-7 mg prot/ml) and allowed to polymerize for 90 min at 37° C. HBEC (40,000 cells) were suspended in 500 μl of either DME, serum-free U87MG CM (collected as described in Cell Cultures) or growth factors (VEGF, IGF-1, bFGF) in the absence or presence of 20 nM of either full length recombinant IGFBP-1 (IBP1, produced at BRI-NRC), IGFBP-2 (IBP2, produced at BRI-NRC and purchased from R&D systems, Minneapolis), IGFBP-3 (IBP3, from R&D systems), IGFBP-4 (IBP4, produced at BRI-NRC), IGFBP-5 (IBP5, produced at BRI-NRC and purchased from R&D systems) and IGFBP-6 (IBP6, from R&D systems) or the C-terminal protein fragments of IGFP-1 (CIBP1), IGFBP-2 (CIBP2), IGFBP-4 (CIBP4), IGFBP-5 (CIBP5) and IGFBP-6 (CIBP6), all produced at BRI-NRC). The ability of a synthetic membrane permeable cathepsin B inhibitor (CA074-ME, EMD Biosciences, Canada) to inhibit angiogenes and cathepsin B activity was also studied. CLT formation was analyzed after 24 h using an Olympus 1×50 microscope. Phase contrast images were captured with a digital video camera (Olympus U-CMT) and analyzed using Northern Eclipse v.5.0 software. Experiments were repeated three times. In order to determine the levels of cathepsin B activity in each experimental condition, at the end of the experiment, 6 μl of 26× Magic Red™ Cathepsin B reagent (Immunochemistry Technologies, LLC) were added to all the wells and maintained at 37° C. in dark for two hours. Cells were washed twice with HBSS and intracellular fluorescence quantification (530/25 nm excitation and 645/40 nm emission) was performed using a cytofluorimeter plate reader (Bio-Tek FL600).
# [3] = test system: human brain endothelial cells (HBEC); details: disclosed in copending PCT/CA2006/000250; cited from earlier work
# [4] = test system: U87MG cells on CAM; assay: Experimental glioma assay: U87MG tumors on chick chorioallantoic membrane (CAM); assay type: in vivo, chicken (Gallus gallus)
# Experimental: Fertilized chicken (Gallus gallus) eggs were obtained from the Canadian Food Inspection Agency and placed into an egg incubator at 37° C. and 67-70% humidity (day 0). At day 3, windows were cut in the egg shell and covered with surgical tape (Durapore,) until day 10. Then, a sterile Nunc Thermanox (Nunc Inc., Naperville, Ill.) plastic ring was placed onto the CAM, the delimited surface gently lacerated with a scalpel blade and a pellet of 10^6 U87MG cells deposited into the center of the ring. […] Digital photos were taken using a Canon 40D camera. At day 17, tumors were carefully removed from the CAM and weighted.
# [5] = test system: U87MG cells; details: disclosed in copending PCT/CA2006/000250; cited from earlier work
# [6] = test system: human brain endothelial cells (HBEC); assay: Confocal microscopy of AF647-CIBP-4 in HBEC; assay type: cell-based; details: 100 nM AF647 conjugate, 90 min
# Experimental: 80 μl of 1 mM Alexa Fluor 647-NHS in DMSO was added to 0.4 ml of recombinant CIBP-4 (0.2 mg/ml) in 100 mM carbonate pH 8.4, and sample was incubated overnight at room temperature. The reaction was stopped with 150 μl of 200 mM ethanolamine pH 8.0. To remove free dye, sample was diluted with 4.5 ml of water and loaded onto 1 ml Co^+2-Talon Metal Affinity column equilibrated with PBS. The column was exhaustively washed with PBS and CIBP-4 eluted with 2 ml of 1 M imidazole in PBS. To remove imidazole from AF647-CIBP-4 conjugate, the sample was concentrated to approximately 200 μl on Biomax (M.W. cut-off 5,000), diluted to original volume with PBS and concentrated again. That process of concentration/dilution was repeated three times. Final volume 0.5 ml (0.14 mg/ml). Recovery 86%.
# HBEC (100,000 cell/well in a 24-well format plate) and U87MG (50,000) were respectively seeded on human fibronectin- (40 μg/ml) or poly-L-lysine-coated cover slips (Bellco Biotechnology) in 400 μl HBEC/U87MG media and grown until reached 80% confluence. Cells were then washed twice with DME and incubated in DME for 30 min at 37° C. […] Confocal images of […] were sequentially obtained using 488, 647 and 540-590 nm excitation laser lines to detect DiOC5(3) (510-525 nm emission) and Alexa 647 (670-810 nm emission) and Magic Red™ Cathepsin B (>610 nm) fluorescence.
# [7] = target: T1, cathepsin B (Homo sapiens, UniProt P07858); assay: Intracellular cathepsin B activity in HBEC seeded on Matrigel (Magic Red); assay type: cell-based; details: 20 nM
# T1 construct: Levels of cathepsin B activity were also measured in U87MG CM alone or pre-incubated; endogenous in cells; host or cells: U87MG (ATCC), 3-day serum-free conditioned medium
# Experimental: as §1
# To determine the ability of these angiogenic factors to stimulate cathepsin B activity in HBEC, a membrane permeable cathepsin B target sequence peptide (Arginine-Arginine) linked to an amide substituted fluorophore, cresyl violet (Magic Red™, Immunochemistry Technologies, LLC) was used. Following enzyme cleavage at the arginine amide linkage site, the cresyl violet fluorophore generates red fluorescence when excited at 550-590 nm.
molecule,measurement,setting,value
"CCCC(=O)Nc1ncnc2c1ncn2[C@@H]1O[C@@H]2COP(=O)(O)O[C@H]2[C@H]1OC(=O)CCC [dB-cAMP, dybutyril cAMP, reference compound]",inhibition of U87MG colony formation in soft agar (efficacy),"[1]; 500 μg/ml dB-cAMP, positive control",~65%
"CIBP4: IGFBP-4 C-terminal fragment (aas 157-258, SEQ ID No. 6) with StreptagII-octahistidine tag (protein, StreptagII-octahistidine tag; C-terminal fragment of IGFBP-4) MLLLLLLLGLRLQLSLGIASKVNGAPREDARPVPQGSCQSELHRALERLAASQSRTHEDLYIIPIPNCDRNGNFHPKQCHPALDGQRGKCWCVDRKTGVKLPGGLEPKGELDCHQLADSFREVDPWSHPQFEKTGHHHHHHHHGGQ",inhibition of angiogenesis (CLT formation by HBEC in Matrigel),"[2]; stimuli U87MG CM, VEGF, IGF-1, bFGF, overnight",reduction in CLT formation
same,"inhibition of angiogenic response induced by U87MG conditioned media and growth factors (bFGF, VEGF, IGF-1)",[3],can inhibit angiogenic response
same,average size of the tumors in each weight interval vs vehicle,[4]; CAM,similar
same,increase in small size tumors (0-15 mg) vs vehicle,[4]; CAM,three-fold
same,reduction in number of large size tumors (20-36 mg) vs vehicle,[4]; CAM,3 fold
same,shift of tumor weight frequency distribution towards smaller tumors vs vehicle,"[4]; CAM, intervals 0-15, 15-20, 20-36 mg",~3 fold
same,reduction of growth of U87MG cells on CAM (tumor weight) vs vehicle,"[4]; CIBP4 250 ng/ml as printed, applied days 11-14, weighed day 17, p<0.005",20-25%
same,reduction of U87MG colony formation in soft agar,[5],able to reduce U87MG colony formation
same,co-localization with lysosomes (Lysotracker) in HBEC,[6],Co-localization
same,inhibition of U87MG colony formation in soft agar (efficacy),[1]; 20 nM,~50%
"CIBP6: IGFBP-6 C-terminal fragment (aas 151-240, SEQ ID No. 10) with octahistidine tag (protein, octahistidine tag; C-terminal fragment of IGFBP-6) MGELLLLLLLGLRLQLSLGIARNSAGVQDTEMGPCRRHLDSVLQQLQTEVYRGAQTLYVPNCDHRGFYRKRQCRSSQGQRRGPCWCVDRMGKSLPGSPDGNGSSSCPTGSSGSSTGHHHHHHHHG",inhibition of U87MG colony formation in soft agar (efficacy),[1]; 20 nM,~25%
"IGFBP-4: recombinant full-length IGFBP-4 (SEQ ID No. 5) with StreptagII-octahistidine tag (protein, StreptagII-octahistidine tag; human) MLPLCLVAALLLAAGPGPSLGDEAIHCPPCSEEKLARCRPPVGCEELVREPGCGCCATCALGLGMPCGVYTPRCGSGLRCYPPRGVEKPLHTLMHGQGVCMELAEIEAIQESLQPSDKDEGDHPNNSFSPCSAHDRRCLQKHFAKIRDRSTSGGKMKVNGAPREDARPVPQGSCQSELHRALERLAASQSRTHEDLYIIPIPNCDRNGNFHPKQCHPALDGQRGKCWCVDRKTGVKLPGGLEPKGELDCHQLADSFREVDPWSHPQFEKTGHHHHHHHHGGQ",reduction of U87MG colony formation in soft agar,[5],able to reduce U87MG colony formation
"IBP2: recombinant full-length IGFBP-2 (aas 1-328, SEQ ID No. 3); produced at BRI-NRC and purchased from R&D systems (protein, human, produced at BRI-NRC and purchased from R&D systems) MLPRVGCPALPLPPPPLLPLLPLLLLLLGASGGGGGARAEVLFRCPPCTPERLAACGPPPVAPPAAVAAVAGGARMPCAELVREPGCGCCSVCARLEGEACGVYTPRCGQGLRCYPHPGSELPLQALVMGEGTCEKRRDAEYGASPEQVADNGDDHSEGGLVENHVDSTMNMLGGGGSAGRKPLKSGMKELAVFREKVTEQHRQMGKGGKHHLGLEEPKKLRPPPARTPCQQELDQVLERISTMRLPDERGPLEHLYSLHIPNCDKHGLYNLKQCKMSLNGQRGECWCVNPNTGKLIQGAPTIRGDPECHLFYNEQQEARGVHTQRMQGSGWSHPQFEKTGHHHHHHHHGGQ",inhibition of angiogenic response induced by IGF-1,"[2]; HBEC on Matrigel, IGF-1 (150 ng/ml)",completely inhibit
same,inhibition of angiogenic response induced by U87MG CM,"[2]; HBEC on Matrigel, U87MG CM",did not inhibit
same,inhibition of angiogenic response induced by VEGF,"[2]; HBEC on Matrigel, VEGF (20 ng/ml)",completely inhibit
same,inhibition of angiogenic response induced by bFGF,"[2]; HBEC on Matrigel, bFGF (20 ng/ml)",did not inhibit
same,inhibition of intracellular cathepsin B activity induced by IGF-1,[7]; IGF-1 (150 ng/ml),completely inhibit
same,inhibition of intracellular cathepsin B activity induced by U87MG CM,[7]; U87MG CM,did not inhibit
same,inhibition of intracellular cathepsin B activity induced by VEGF,[7]; VEGF (20 ng/ml),completely inhibit
same,inhibition of intracellular cathepsin B activity induced by bFGF,[7]; bFGF (20 ng/ml),did not inhibit
"CIBP1: IGFBP-1 C-terminal domain (aa 170-259, SEQ ID No. 2) with octahistidine tag (protein, octahistidine tag; C-terminal fragment of IGFBP-1) MGELLLLLLLGLRLQLSLGIASKKWKEPCRIELYRVVESLAKAQETSGEEISKFYLPNCNKNGFYHSRQCETSMDGEAGLCWCVYPWNGKRIPGSPEIRGDPNCQIYFNVQASSGSSTGHHHHHHHHG",inhibition of U87MG colony formation in soft agar (efficacy),[1]; 20 nM,~25%
